Values belong to the binder of their own block, whether it stands above or below them.
Columns and labels:
Experiment in all cases: holdup assay
Set-up in all cases: key: below the threshold = too weak to quantify, mostly under pKd 3.1 to 4
CARD11, Q9BXL7 = target: T1, CARD11, Q9BXL7
T1 sequence (Q9BXL7 662-765, limits assumed, looked up): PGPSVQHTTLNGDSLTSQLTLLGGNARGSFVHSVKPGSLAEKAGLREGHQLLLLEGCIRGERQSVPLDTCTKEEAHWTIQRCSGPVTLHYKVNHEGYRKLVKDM

DLG4_3, P78352 = target: DLG4_3, P78352
DLG5_1, Q8TDM6 = target: DLG5_1, Q8TDM6
GOPC, Q9HD26 = target: GOPC, Q9HD26
GRID2IP_2, A4D2P6 = target: GRID2IP_2, A4D2P6
GRIP2_5, Q9C0E4 = target: GRIP2_5, Q9C0E4
GRIP2_7, Q9C0E4 = target: GRIP2_7, Q9C0E4
HTRA3, P83110 = target: T2, HTRA3, P83110
T2 sequence (P83110 354-453, limits assumed, looked up): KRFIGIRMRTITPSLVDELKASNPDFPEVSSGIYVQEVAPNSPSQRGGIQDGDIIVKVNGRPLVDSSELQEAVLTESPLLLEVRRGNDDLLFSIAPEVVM

IL16_3, Q14005 = target: IL16_3, Q14005
Inadl_10, Q8NI35 = target: Inadl_10, Q8NI35
Inadl_5, Q8NI35 = target: Inadl_5, Q8NI35
LAP2, Q96RT1 = target: LAP2, Q96RT1
LDB3, O75112 = target: LDB3, O75112
LIN7B, Q9HAP6 = target: T3, LIN7B, Q9HAP6
T3 sequence (Q9HAP6 88-185, limits assumed, looked up): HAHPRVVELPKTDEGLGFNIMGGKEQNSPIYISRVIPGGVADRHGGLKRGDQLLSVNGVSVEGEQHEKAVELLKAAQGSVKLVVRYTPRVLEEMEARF

LNX2_2, Q8N448 = target: T4, LNX2_2, Q8N448
T4 sequence (Q8N448 334-432, limits assumed, looked up): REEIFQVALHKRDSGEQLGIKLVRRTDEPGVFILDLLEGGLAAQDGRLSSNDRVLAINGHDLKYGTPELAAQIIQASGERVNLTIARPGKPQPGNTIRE

LRRC7, Q96NW7 = target: T5, LRRC7, Q96NW7
T5 sequence (Q96NW7 1440-1537, limits assumed, looked up): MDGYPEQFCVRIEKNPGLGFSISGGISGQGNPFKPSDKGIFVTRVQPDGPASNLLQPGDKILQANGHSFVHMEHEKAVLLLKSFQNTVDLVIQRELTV

MAGI2_4, Q86UL8 = target: MAGI2_4, Q86UL8
NHERF3_1, Q5T2W1 = target: T6, NHERF3_1, Q5T2W1
T6 sequence (Q5T2W1 4-100, limits assumed, looked up): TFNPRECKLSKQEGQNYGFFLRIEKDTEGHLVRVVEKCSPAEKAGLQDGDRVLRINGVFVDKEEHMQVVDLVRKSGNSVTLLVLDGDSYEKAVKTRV

NHERF3_3, Q5T2W1 = target: T7, NHERF3_3, Q5T2W1
T7 sequence (Q5T2W1 238-333, limits assumed, looked up): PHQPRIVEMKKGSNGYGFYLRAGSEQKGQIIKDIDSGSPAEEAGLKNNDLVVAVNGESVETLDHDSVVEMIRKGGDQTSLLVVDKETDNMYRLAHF

NHERF4_1, Q86UT5-2 = target: NHERF4_1, Q86UT5-2
NHERF4_2, Q86UT5 = target: NHERF4_2, Q86UT5
PCLO, Q9Y6V0 = target: T8, PCLO, Q9Y6V0
T8 sequence (Q9Y6V0 4491-4600, limits assumed, looked up): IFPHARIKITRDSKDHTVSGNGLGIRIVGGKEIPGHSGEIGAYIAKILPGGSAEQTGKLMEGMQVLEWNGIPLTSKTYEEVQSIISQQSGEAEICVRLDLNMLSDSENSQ

PICK1, Q9NRD5 = target: PICK1, Q9NRD5
SCRIB_2, Q14160 = target: SCRIB_2, Q14160
SCRIB_3, Q14160 = target: SCRIB_3, Q14160
SNTG1, Q9NSN8 = target: T9, SNTG1, Q9NSN8
T9 sequence (Q9NSN8 52-150, limits assumed, looked up): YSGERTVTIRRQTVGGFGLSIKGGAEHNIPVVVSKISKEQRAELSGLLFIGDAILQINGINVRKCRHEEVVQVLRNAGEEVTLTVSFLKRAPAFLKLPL

SNX27, Q96L92 = target: SNX27, Q96L92
TJP2_1, Q9UDY2 = target: TJP2_1, Q9UDY2
[1] = plain residues with an end cap or a label only (N-terminal biotin on a linker: ahx)
[2] = plain residues with an end cap or a label only (N-terminal biotin on a linker: ado-ado)

Sequence of GRID2IP_2, A4D2P6 (A4D2P6 272-370): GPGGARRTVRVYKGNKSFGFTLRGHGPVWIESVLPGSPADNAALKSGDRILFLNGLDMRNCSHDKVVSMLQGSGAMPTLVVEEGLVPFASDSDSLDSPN
Sequence of TJP2_1, Q9UDY2 (Q9UDY2 24-128): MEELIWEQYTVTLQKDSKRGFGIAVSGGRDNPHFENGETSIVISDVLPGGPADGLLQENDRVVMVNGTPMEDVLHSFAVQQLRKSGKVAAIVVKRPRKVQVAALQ
Sequence of SCRIB_3, Q14160 (Q14160 999-1103): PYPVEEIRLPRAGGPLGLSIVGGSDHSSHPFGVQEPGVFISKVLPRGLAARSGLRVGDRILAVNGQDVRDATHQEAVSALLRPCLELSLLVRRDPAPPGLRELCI
Sequence of LDB3, O75112 (O75112 1-94): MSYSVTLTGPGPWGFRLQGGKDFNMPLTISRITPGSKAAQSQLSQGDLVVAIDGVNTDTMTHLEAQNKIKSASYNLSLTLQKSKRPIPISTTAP
Sequence of PICK1, Q9NRD5 (Q9NRD5 17-115): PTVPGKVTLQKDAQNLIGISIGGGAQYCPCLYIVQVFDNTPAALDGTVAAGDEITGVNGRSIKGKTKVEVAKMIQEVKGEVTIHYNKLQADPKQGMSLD
Sequence of Inadl_10, Q8NI35 (Q8NI35 1673-1763): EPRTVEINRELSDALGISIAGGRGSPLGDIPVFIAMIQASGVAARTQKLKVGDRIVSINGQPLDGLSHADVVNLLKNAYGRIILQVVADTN
Sequence of GRIP2_5, Q9C0E4 (Q9C0E4 544-642): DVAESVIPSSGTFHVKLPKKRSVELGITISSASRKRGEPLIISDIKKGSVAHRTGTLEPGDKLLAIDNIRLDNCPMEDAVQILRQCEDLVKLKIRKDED
Sequence of LAP2, Q96RT1 (Q96RT1 other isoform, or with tags, fused parts or gaps): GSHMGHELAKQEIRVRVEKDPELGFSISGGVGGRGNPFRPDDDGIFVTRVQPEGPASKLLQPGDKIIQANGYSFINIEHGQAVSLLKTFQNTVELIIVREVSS
Sequence of IL16_3, Q14005 (Q14005 1107-1207): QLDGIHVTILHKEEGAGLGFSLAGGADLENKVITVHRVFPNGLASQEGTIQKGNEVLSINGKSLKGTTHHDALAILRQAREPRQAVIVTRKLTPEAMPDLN
Sequence of SCRIB_2, Q14160 (Q14160 857-960): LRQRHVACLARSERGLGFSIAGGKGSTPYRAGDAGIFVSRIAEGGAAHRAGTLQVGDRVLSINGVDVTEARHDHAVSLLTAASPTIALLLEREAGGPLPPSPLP
Sequence of GRIP2_7, Q9C0E4 (Q9C0E4 934-1023): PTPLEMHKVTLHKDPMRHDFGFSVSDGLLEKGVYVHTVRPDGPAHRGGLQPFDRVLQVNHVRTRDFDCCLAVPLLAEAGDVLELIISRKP
Sequence of NHERF4_2, Q86UT5 (Q86UT5 220-308): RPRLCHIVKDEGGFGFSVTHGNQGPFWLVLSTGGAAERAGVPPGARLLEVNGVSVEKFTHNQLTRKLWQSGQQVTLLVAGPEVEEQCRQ
Sequence of DLG4_3, P78352 (P78352 306-403): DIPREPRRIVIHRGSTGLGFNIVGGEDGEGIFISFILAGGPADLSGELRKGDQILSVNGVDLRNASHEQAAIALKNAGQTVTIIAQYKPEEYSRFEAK
Sequence of Inadl_5, Q8NI35 (Q8NI35 673-780): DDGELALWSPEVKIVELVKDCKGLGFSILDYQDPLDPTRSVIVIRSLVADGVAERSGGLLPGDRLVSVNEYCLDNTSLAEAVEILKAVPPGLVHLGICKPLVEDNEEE
Sequence of NHERF4_1, Q86UT5-2 (Q86UT5 other isoform, or with tags, fused parts or gaps): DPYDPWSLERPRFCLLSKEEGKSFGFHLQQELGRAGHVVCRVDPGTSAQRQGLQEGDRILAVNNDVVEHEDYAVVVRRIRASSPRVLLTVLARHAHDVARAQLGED
Sequence of MAGI2_4, Q86UL8 (Q86UL8 772-865): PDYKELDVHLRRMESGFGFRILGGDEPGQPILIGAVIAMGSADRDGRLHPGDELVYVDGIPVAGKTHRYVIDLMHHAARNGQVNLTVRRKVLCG
Sequence of DLG5_1, Q8TDM6 (Q8TDM6 617-713): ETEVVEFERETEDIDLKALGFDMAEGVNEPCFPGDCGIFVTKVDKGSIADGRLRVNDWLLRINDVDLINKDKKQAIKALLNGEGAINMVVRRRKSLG

pKd (CARD11, Q9BXL7; [1]): below the threshold
pKd (DLG4_3, P78352; [1]): below the threshold
pKd (DLG5_1, Q8TDM6; [1]): below the threshold
pKd (GOPC, Q9HD26; [1]): below the threshold
pKd (GRID2IP_2, A4D2P6; [1]): below the threshold
pKd (GRIP2_5, Q9C0E4; [1]): below the threshold
pKd (GRIP2_7, Q9C0E4; [1]): below the threshold
pKd (HTRA3, P83110; [1]): below the threshold
pKd (IL16_3, Q14005; [1]): below the threshold
pKd (Inadl_10, Q8NI35; [1]): below the threshold
pKd (Inadl_5, Q8NI35; [1]): below the threshold
pKd (LAP2, Q96RT1; [1]): below the threshold
pKd (LDB3, O75112; [1]): below the threshold
pKd (LIN7B, Q9HAP6; [1]): below the threshold
pKd (LNX2_2, Q8N448; [1]): below the threshold
pKd (LRRC7, Q96NW7; [1]): below the threshold
pKd (MAGI2_4, Q86UL8; [1]): below the threshold
pKd (NHERF3_1, Q5T2W1; [1]): 4.4
pKd (NHERF3_3, Q5T2W1; [1]): below the threshold
pKd (NHERF4_1, Q86UT5-2; [1]): 3.65
pKd (NHERF4_2, Q86UT5; [1]): below the threshold
pKd (PCLO, Q9Y6V0; [1]): below the threshold
pKd (PICK1, Q9NRD5; [1]): below the threshold
pKd (SCRIB_2, Q14160; [1]): below the threshold
pKd (SCRIB_3, Q14160; [1]): below the threshold
pKd (SNTG1, Q9NSN8; [1]): below the threshold
pKd (SNX27, Q96L92; [1]): 4.95
pKd (TJP2_1, Q9UDY2; [1]): below the threshold
Binder: QNTDDVQTSF [ACE2, Q9BYF1]

pKd (CARD11, Q9BXL7; [2]): below the threshold
pKd (DLG4_3, P78352; [2]): 3.5
pKd (DLG5_1, Q8TDM6; [2]): below the threshold
pKd (GOPC, Q9HD26; [2]): 3.5
pKd (GRID2IP_2, A4D2P6; [2]): below the threshold
pKd (GRIP2_5, Q9C0E4; [2]): below the threshold
pKd (GRIP2_7, Q9C0E4; [2]): below the threshold
pKd (HTRA3, P83110; [2]): below the threshold
pKd (IL16_3, Q14005; [2]): below the threshold
pKd (Inadl_10, Q8NI35; [2]): below the threshold
pKd (Inadl_5, Q8NI35; [2]): below the threshold
pKd (LAP2, Q96RT1; [2]): below the threshold
pKd (LDB3, O75112; [2]): below the threshold
pKd (LIN7B, Q9HAP6; [2]): below the threshold
pKd (LNX2_2, Q8N448; [2]): below the threshold
pKd (LRRC7, Q96NW7; [2]): below the threshold
pKd (MAGI2_4, Q86UL8; [2]): below the threshold
pKd (NHERF3_1, Q5T2W1; [2]): 3.71
pKd (NHERF3_3, Q5T2W1; [2]): below the threshold
pKd (NHERF4_1, Q86UT5-2; [2]): 4.34
pKd (NHERF4_2, Q86UT5; [2]): below the threshold
pKd (PCLO, Q9Y6V0; [2]): below the threshold
pKd (PICK1, Q9NRD5; [2]): below the threshold
pKd (SCRIB_2, Q14160; [2]): below the threshold
pKd (SCRIB_3, Q14160; [2]): 4.57
pKd (SNTG1, Q9NSN8; [2]): below the threshold
pKd (SNX27, Q96L92; [2]): below the threshold
pKd (TJP2_1, Q9UDY2; [2]): below the threshold
Binder: GEDRSPPTAL [MKNK1, Q9BUB5]

pKd (CARD11, Q9BXL7; [2]): below the threshold
pKd (DLG4_3, P78352; [2]): below the threshold
pKd (DLG5_1, Q8TDM6; [2]): below the threshold
pKd (GOPC, Q9HD26; [2]): 3.89
pKd (GRID2IP_2, A4D2P6; [2]): 5.09
pKd (GRIP2_5, Q9C0E4; [2]): below the threshold
pKd (GRIP2_7, Q9C0E4; [2]): below the threshold
pKd (HTRA3, P83110; [2]): below the threshold
pKd (IL16_3, Q14005; [2]): below the threshold
pKd (Inadl_10, Q8NI35; [2]): below the threshold
pKd (Inadl_5, Q8NI35; [2]): below the threshold
pKd (LAP2, Q96RT1; [2]): below the threshold
pKd (LDB3, O75112; [2]): below the threshold
pKd (LIN7B, Q9HAP6; [2]): below the threshold
pKd (LNX2_2, Q8N448; [2]): below the threshold
pKd (LRRC7, Q96NW7; [2]): below the threshold
pKd (MAGI2_4, Q86UL8; [2]): below the threshold
pKd (NHERF3_1, Q5T2W1; [2]): 4.94
pKd (NHERF3_3, Q5T2W1; [2]): 3.77
pKd (NHERF4_1, Q86UT5-2; [2]): 4.51
pKd (NHERF4_2, Q86UT5; [2]): below the threshold
pKd (PCLO, Q9Y6V0; [2]): below the threshold
pKd (PICK1, Q9NRD5; [2]): 3.99
pKd (SCRIB_2, Q14160; [2]): below the threshold
pKd (SCRIB_3, Q14160; [2]): 4.07
pKd (SNTG1, Q9NSN8; [2]): below the threshold
pKd (SNX27, Q96L92; [2]): 3.75
pKd (TJP2_1, Q9UDY2; [2]): 4.32
Binder: KKMLQRRTLL [OR8G1, Q15617]

From PMC9482650, “Quantitative fragmentomics allow affinity mapping of interactomes” (Nature Communications, 2022)
